Measurements: PMC5584228

Key:
[1] = target: Fc hole chain of mutant KiHss (Y349C/T366S/L368A/Y407V) (human); assay: non-reducing SDS-PAGE of co-expressed chains; scFv-Fc chain (A) and Fc chain (B) co-transfected 1:1 in HEK 293H; secreted Fcs purified by Protein A; disulphide-linked dimers AA, AB and BB told apart by size and quantified by densitometry (ImageLab)
[2] = target: Fc hole chain with F405K (Y349C/T366S/L368A/Y407V/F405K), of mutants KiHss-Kh, KiHss-AkKh and KiHss-KkKh (human); assay: as above

Row | Substance | heterodimeric Fc (AB), percent of total Fcs [1] | heterodimeric Fc (AB), percent of total Fcs [2]
1 | scFv-Fc knob chain with F405K (S354C/T366W/F405K), of mutants KiHss-Kk and KiHss-KkKh (Fc fusion) | > 80% | 
2 | scFv-Fc knob chain of mutant KiHss (S354C/T366W) (Fc fusion) | 73% | > 80%
3 | scFv-Fc knob chain of mutant KiHss-AkKh (S354C/T366W/K409A) (Fc fusion) |  | 94%
